Data taken from the nanobody polyreactivity screen of Harvey et al. (2022).

Test: yeast display, Sf9 membrane polyspecificity reagent, FACS + sequencing; frameworks hold sequencing errors
In short: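 In a synthetic yeast display library (Saccharomyces cerevisiae BJ5465), nanobody expression was induced with galactose for 36–48 hours. FACS gates were set low and high (top ~1%) using anti-HA fluorescence for expression and streptavidin fluorescence for binding of the Sf9 membrane reagent. Each polyreactivity label is drawn from the gate of origin.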

Sequence | polyreactivity (PSR sort gate)
QVQLVESGGGLVQAGGSLRLSCAASGRIFVVYAMGWYRQAPGKERELVASISRGGRTYYADSVKGRFTISRDNAKNTVYLQMNSLKPEDTAVYDCAVVVYLKNRDLFDYWGQGTQVTVSS | low polyreactivity
QVQLVESGGGLVQAGGSLRLICAASGRTFRYNAMGWYRQAPGKERELVAAITLGASRTYYADSVKGRFTISRDNAKNTVYLQMNSLKPEDTAVYYCNAVGRRNVDSSLNDYWGQGTQVTVSS | low polyreactivity
QVQLVESGGGLVKAGGSLRLSCAASGSTFQWYAMGWYRQAPGKERELVAAINKSGGTTYYADSVKGRFTISRDNAKNSVYLQMNSLKPEDTAVYYCATDNPVVYQPGNMDYWGQGTQVTVSS | low polyreactivity
QVQLVESGGGLVQAGGSLRLSCAATGRIFIDNTMGWYRQAPGKERELVAAISWSGGSTYYADSVKGRFTISRDNAKNTVYLQMNCLKPEDTAVYYCAARRLRSNGRTWAVTYDYWGQGTQVTVSS | low polyreactivity
QVQLVESGGDLVQAGGSLRLSCAASGFTLTNYAMGWYRQATGKARELVAAITSSGGSTYYADSVKGRFTISRDNAKNTVYFQMNSLKPEDTAVYYCAAQGSRHFRWRYDYWGQGTQVTVSS | high polyreactivity
QVQLVESGGGLDQAGGSLRLSCAASGFILDTYGMGWYRQATGTERELVAAISQSDVSTYYADSVKGRFTISRDNAKNTVYLQMNSLKPEDTAVYYCAAAHLSYRRRYESWGQGTQVTVSS | low polyreactivity
QVQLVESGGGLVQAGGSLRLSCAASVFTFTKYAMGWYRQAPGKERELVAAITRRGGRTYYADSVKGRFTISRDNAKNTVYLQMNSLKPEDTAVYYFNADIIWGSVSNGSEYDYWGQGTQVTVSS | high polyreactivity
QVQLVESGGGLVQAVGSLRLSCAASGSTFGRNAMGWYRQAPGKERELVAAISWSASRTYYADSVKGRFTISRDNAKNTVYLQMNSLKPEDTAVYFCAAEYDVGYFGYEYWGQGTQVTVSS | high polyreactivity
QVQLVESGGGLVQAGGSLRLSCAASGRTFAYYAMGWYRQAPGKERELVAAITQSGGRTYYADSVKGRFTISRDNAKNTVYLQMNSLKPEDTAVYYCAARRISGKWEYDYWGQGTQVTVSS | high polyreactivity
QVQLVESGGGLVQAGGSLRLSCAASGRIFGYNAMGWYRQAPGNERELVAAITNGGSTNYADSVKGRFTISRDNAKNTVYLQINSLKPEDTAVYYCAVKWYPPGHDYWGQGTQVTVSS | low polyreactivity
QVQLVESGGGLVQAGGSLRLSCAASGRTFYGYAMGWYRQAPGKERELVAAISFSGGRTYYADSVKGRFTISRDNAKNTVYLQMNSLKPEDTAVYYCAAVPRGWFSYPSGYDYWGQGTQVTVSS | high polyreactivity
QVQLVESGGGLVQAGGSLRLSCAASGFIFGGYAMGWYRQAPGKERELVARITRSGGSTYYADSVKGRFTISRDNAKNTVYLQMNSLKPEDTAVYYCNARYGKPAYQYGMDYWGQGTQVTVSS | low polyreactivity
QVQLVESGGRLVQAGGSLRLSCAASGFTFRYYDMRWYRPAPGKVRELVAAISSGGSTDYADSVKGRFTISRDNAKNTVYLQMNSLKPEDTAVYYCAADWWVVYTYDYWGRGTQVTVSS | low polyreactivity
QVQLVESGGGLVQAGASLRLSCAASGRIFNGYAMGWYRQAPWKERELVATIRYRGDNTYYADSVKGRFTISRDNAKNTVYLQMNSLKPEDTAVYYCNARVWYTSTSSWAKRYNYWGQGTQVTVSS | high polyreactivity
QVQHVESGGGLVQAGGSLRLSCAASGFTFAYYAKGWYRQAPGKERELVARISSGGSTYYADSVKGRFTISRDNAKNTVYLQMNSLKPEDTAVYYCAARSYYISPWRFDYWGQGTQVTVSS | high polyreactivity
QVQLVESGGGIVQAGGSLRLSCAASGSTFYRYAMGWYRQAPGKERELVATITNSGGSTYYADSVKGRFTISRDNAKNTVYLQMNSLKPEDTAVYYCARVRSRNTGYYYWGQGTQVTVSS | high polyreactivity
QVQIVESGGGLVQAVGSLRLSCAAYGSTFCANAMGCYRQAPGKERELVAAIRGTGGSTYADSVKGRFTISRDNAKNTVYLQMNSLKPEDTAVYYCNAKGRGWTAQYDYCGQGTQVTVSS | low polyreactivity
QVQLVESGGGLVQAGGSLRLSCAASGFTFYWYAMGWYRQAPGKERQLVAAISKTGGSTYYADSVKGRFTISRDNAQKTVYLQMTSLKPEDTAVYYCNADKVATWRTHHDYWGQGTQVTVSS | low polyreactivity
QVQLVESGGGLVQAGGSLRLSCAASGSTFDPYAMGWYRQAPGKERELVAAITWGGGSTYADSVKGRFTISRDNAKNTVYLQMNSLKPEDTAVYYCAAEYYLWLFEYYVEYDYWGQGTQVTVSS | high polyreactivity
QVQLVESGGGLVQAGGSLRLSCAASGLTFYWNAMGWYRQAPGKERELVASISQSSGNTYYADSVKGRFTISRDNAKNTVYFQMNSLKPEDTAVYYCAARNRPSLNRYYYWGQGTQVNVSS | low polyreactivity
QVQLVESGGGLVQAGGSLRLICAASGSTFIVYAMGWSRQAPGKEREFVAAISSGDSTKYADSVKGRFTISRDNAKNTVYLQMNSLKPEDTAVYYCAKYGQRSIHSPSLVGYYYWGQGTQVTVSS | low polyreactivity
QVQLVESGGGLVQAGGSLRLSCAASGFIFGTYAMGWYRQAPGKERELVAAISVGGGSTYYADSVKGRFTISRDTAKNTVYLQMNSLKPEDTAVYYCAAVQLYQKHQITYVAHEYWGQGTQVTVSS | low polyreactivity

Sequence | polyreactivity (PSR sort gate)
QVPLVESGGGLVQAGGSLRLSCAASGRIFLRYDIGWYRKAPGKERELVAAIPRSGGSTYYADSVKGRFTISRDNAKNTVYLQMNSLKPEDTAVYYCAARRWGRVYTTYTGGYWGQGTQVTVSS | high polyreactivity
QVQLVESGGGLVQAGGSLRLSCADSGSIFYTYAMGWYRPAPGKERELVAAITRSGGSTNYADSVKGRFTITRDNAKYTVYLQMNSLKPEDNAVYYCAAVFNWAPYFYYYWGQRTQVTVSS | high polyreactivity
QVQLVESGGGLVQAGGSLRLSCAPSGYTFARYAMGWSRQAPGKDRELVAAITSSGGSTYYADSVKGRFTSSRDNAKNTVYLQMNSLKPEDTAVYYCNARGFQKSDPRGYLILNYWGQGTQVTVSS | high polyreactivity
QVQLVESGGGLVQAGGSLRLSCAASGSIFEYNAMGWYRQAPWKERELVAAITSGGSTNYADSVKGRFTISRDNAKNTVYLQMNSLKPEDTAVYYCAKKYRSVPKYLYRITKYNYWGQGTQVTVSS | low polyreactivity
QVQLVESGGGLVQAGGSLRLSCAASGFIFYSNAMGWYRQEPGKERELVAAITSGGGSTYYADSVKGRFTISRDNAKNTVYLQMNSLKPEDTAVYYCAVSIGRYPYRYGYWGQGTQVTVSS | high polyreactivity
QVQLVESGGGLVQAGGSLRLSCAASGRIFYWNAMGWYRQAPGKERELVAVITKSGGSTYYADSVKGRFTISRDNAKNTVYLQMNSLKPEDTAVYYCAKSLYVQGYYIYDWGQGTQVTVSS | high polyreactivity
QVQLVESGGGLVQAGGSLRLSCAASGFIFDSNVMGWYRQAPGKERELVATITNRGGRTYYADSVKGRFTISRDNAKNTVYLQMNSLKPEDTAVYYCNRRWIWTRDRGGYWGQGTQVTVSS | low polyreactivity
QVQLVESGGGLVQAGGSLRLSCAATGRIFSFYAMGWYRQAPGKERELVAAITWGDGSTYYAVSVKGRFTISRDNAKNTVYLQMNSLKPEDTAVYYCNKTYIDTTVYDVIMDYWGQGTQVTVSS | low polyreactivity
QVQLVESGGGLVQAGGSLRLSCAPSGRTLFTNAMGWYRQAPGKERELVAAISIGGTTYYADSVKGRFTISRDNAKNTVYLQMNSLKPEDTAVYYCNKVRRFHSEYGYWGQGTQVTVSS | high polyreactivity
QVQLVESGGGLVQAGGSLRLSCAASGFTFRRNAMGWYRKAPGKERELVAAISSSGGSTNYADSVKGRFTISRDNAKNTVYLQMNSLKPEDTAVYYCNRGSRRLGSIVWYDYWGQGTQVTVSS | high polyreactivity
QDQLVESGGGLDQAGGSLRLSCAASGRIFARYAMGWYRLAPGKERELVAALSRGGSTKYADSVKGRFTISRDNAKNTVYLQLHSLQQEDTAVYYCARQLWGSQYGAYYAGDYWGQVTQVTVSS | low polyreactivity
QVQHVESGGGLVQAGGSLRLSCAASGSTFYGNTMGCYRQAPGKERELVAAISIRGTRTYYADSVKGRFTISRDNAKNTVYLQMNSLKPEDTAVYYCNAVTFPHNYDYWGQGTQVTVSS | high polyreactivity
QVQLVDSGGGLVQAGGSLRLSCAASGSTFSDSPMGGYRQAPGKERELVAGITGGGGTYYADSVKGRFTISRDNAKNTVYLQMNSLKPEDTAVYYCAAGYGRRIRYGSEYDYWGQGTQVTVSS | low polyreactivity
QVQLVESGGGLVQAGGSLRLSCAASGSIFAINVMGWYRQAPGKEREFVAAISVRSGSTYYADSVKGRFTISRDNAKNTVYLQMNSLKPEDTAVYYCARDSYYIGRWLYYWGQGTQVTVSS | high polyreactivity
QVQLVESGGGLVQAGGSLRLSCAASGIIFWRHVMGWYRQAPGKERELVATISTRGGNTYYADSVKGRFTISRDNAKNTVYLQMNSVKPEDTAVYYCAAGKNGYTYSRSYSYGYWGQGTQVTVSS | high polyreactivity
QVQLVESGGGLVQAGGSLRLSCAASGSTFSWNTMGWYRQAPGKERELVAAINSGGSTYYADSVKGRFTISRDNAKNTVYLQMNSLKPEDTAVYYCAARTNYYGRFDYWGQGTQVTVSS | low polyreactivity
QVQLVESGGGLVQAGGSLRLSCAASGSNFRVYAMGWDRQAPGKERELVAAISSSGGITYYADSVKGRFTISRDNAKNTVYLQMNSLKPEDTAVYYCAKGTVIHVLYDYWGQGTQVTVSS | low polyreactivity
QVQLVESGGGLVQAGGSLRVSCAASGSTFYIYAMGWSRQAPGKERELVARISGSGGSTYYADSVKGRFTISRDYAKNTVYLLMNSLKPEDTAVYYCAADDIYKYYQYYAFPYSRYDYWGQGTQLTVSS | low polyreactivity
QVQLVESGGGLVQAGGSLRLSCAASGSIFSGYTMGWYRQAPGKERELVAAISSDGSTTYADSVKGRFTISRDNAKNTVYLQMNSLKPEDTAVYYCAAYPYWDGSYGGYDYWGQGTQVTVSS | low polyreactivity
QVQLVESGGGLVQAGGSLRLSCAASGRTFSSYAMGWYRQAPGKERELVAAIRVSGGITYYADSVKGRFTISRDNAKNTVYLQMNSLKPEDTAVYYCNAGVDFIGGSYLKYDYWGQGTKVTVSS | low polyreactivity
QVQLVESGGGLVQAGGSLRLSCAASGRTFRYYAMGWYRQAPGKERELVAAITGSGGSTYYADSVKGRFTISRDNAKNTVYLQMHSLKPEDTAVYYCNTYLSRWSGERDYWGQGTQVTVSS | high polyreactivity
